Experimental data as given in patent publication US20240110201A1 (SPARK THERAPEUTICS, published 2024).

Target: T1, C1-esterase (reagent of the Technochrom C1-INH kit, Diapharma 5345003) (human, UniProt P09871 16-688, limits assumed)
T1 sequence (looked up): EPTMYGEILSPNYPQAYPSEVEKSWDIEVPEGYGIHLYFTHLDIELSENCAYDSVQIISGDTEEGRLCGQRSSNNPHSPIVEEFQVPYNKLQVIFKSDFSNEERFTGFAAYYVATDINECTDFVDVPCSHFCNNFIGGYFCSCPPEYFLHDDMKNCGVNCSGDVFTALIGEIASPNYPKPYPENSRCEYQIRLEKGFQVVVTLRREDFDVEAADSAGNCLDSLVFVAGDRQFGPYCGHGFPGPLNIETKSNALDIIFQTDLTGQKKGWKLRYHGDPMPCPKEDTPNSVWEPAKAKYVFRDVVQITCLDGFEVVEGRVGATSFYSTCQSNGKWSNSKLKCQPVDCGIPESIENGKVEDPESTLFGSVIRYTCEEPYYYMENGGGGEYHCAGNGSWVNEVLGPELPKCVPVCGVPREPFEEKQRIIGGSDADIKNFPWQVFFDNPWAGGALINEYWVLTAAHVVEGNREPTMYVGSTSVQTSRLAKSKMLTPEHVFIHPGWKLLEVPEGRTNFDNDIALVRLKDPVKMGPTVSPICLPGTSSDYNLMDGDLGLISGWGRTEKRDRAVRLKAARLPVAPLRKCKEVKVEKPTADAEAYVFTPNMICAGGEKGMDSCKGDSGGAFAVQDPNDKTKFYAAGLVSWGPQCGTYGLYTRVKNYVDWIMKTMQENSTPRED
Test: cell-based or functional assay

B1: human C1 inhibitor (transgene product secreted into plasma after administration of AAV-encapsidated SERPING1 expression cassettes) (other)
chain: NPNATSSSSQDPESLQDRGEGKVATTVISKMLFVEPILEVSSLPTTNSTTNSATKITANTTDEPTTQPTTEPTTQPTIQPTQPTTQLPTDSPTQPTTGSFCPGPVTLCSDLESHSTEAVLGDALVDFSLKLYHAFSAMKKVETNMAFSPFSIASLLTQVLLGAGENTKTNLESILSYPKDFTCVHQALKGFTTKGVTSVSQIFHSPDLAIRDTFVNASRTLYSSSPRVLSNNSDANLELINTWVAKNTNNKISRLLDSLPSDTRLVLLNAIYLSAKWKTTFDPKKTRMEPFHFKNSVIKVPMMNSKKYPVAHFIDQTLKAKVGQLQLSHNLSLVILVPQNLKHRLEDMEQALSPSVFKAIMEKLEMSKFQPTLLTLPRIKVTTSQDMLSIMEKLEFFDFSYDLNLCGLTEDPDLQVSAMQHQTVLELTETGVEAAAASAISVARTLLVFEVQQPFLFVLWDQQHKFPVFMGRVYDPRA
  C1-INH activity, chromogenic assay of residual C1-esterase activity, reported as percentage of activity relative to a coagulation reference standard: 766 % activity
